The values below are quoted from earlier work in paper PMC3042137.

Usually Kd stands for the concentration at which binding is half-saturated.

The target in this data set is JIP1 (L-pepJIP1) (Homo sapiens) (UniProt Q9UQF2). Nature of the data set: ITC. (In general: ITC needs no label: the signal is the heat of the interaction.)
Sequence of UniProt Q9UQF2 (Q9UQF2 whole entry): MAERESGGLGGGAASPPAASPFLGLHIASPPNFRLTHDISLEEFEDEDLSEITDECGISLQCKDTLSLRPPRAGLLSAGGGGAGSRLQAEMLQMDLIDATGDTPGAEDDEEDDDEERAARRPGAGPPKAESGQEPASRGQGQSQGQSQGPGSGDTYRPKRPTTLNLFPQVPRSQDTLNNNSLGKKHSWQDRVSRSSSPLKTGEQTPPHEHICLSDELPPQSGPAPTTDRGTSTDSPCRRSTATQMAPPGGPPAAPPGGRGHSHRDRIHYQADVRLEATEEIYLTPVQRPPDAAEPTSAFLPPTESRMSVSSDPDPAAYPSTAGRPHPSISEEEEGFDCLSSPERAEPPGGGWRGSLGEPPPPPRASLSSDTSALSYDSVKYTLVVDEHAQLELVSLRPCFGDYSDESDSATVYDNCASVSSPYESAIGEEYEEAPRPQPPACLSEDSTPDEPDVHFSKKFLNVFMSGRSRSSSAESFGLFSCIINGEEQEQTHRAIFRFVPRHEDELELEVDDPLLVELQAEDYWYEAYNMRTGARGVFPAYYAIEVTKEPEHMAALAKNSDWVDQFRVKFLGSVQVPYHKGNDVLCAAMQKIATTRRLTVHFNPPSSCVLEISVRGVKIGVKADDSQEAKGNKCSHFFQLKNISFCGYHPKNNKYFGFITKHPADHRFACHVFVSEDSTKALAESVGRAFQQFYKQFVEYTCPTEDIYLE

Regarding JNK1 (from UniProt P45983), the Kd is 420 nM.
